Assay results published in US20050171026.

Biological target: Recombinant His-tagged SF2/ASF (rSF2/ASF) (UniProt Q07955)
Sequence (Q07955 whole entry): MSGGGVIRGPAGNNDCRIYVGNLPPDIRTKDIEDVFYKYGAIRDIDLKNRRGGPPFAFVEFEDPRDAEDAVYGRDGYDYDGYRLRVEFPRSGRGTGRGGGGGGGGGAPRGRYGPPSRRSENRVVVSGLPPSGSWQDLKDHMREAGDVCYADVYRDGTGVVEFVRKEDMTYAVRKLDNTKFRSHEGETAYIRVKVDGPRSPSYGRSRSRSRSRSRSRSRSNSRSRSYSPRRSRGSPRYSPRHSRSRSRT

Chain of Glutathione S-transferase-tagged mClk1/Sty (recombinant Clk1/Sty) (chain, as listed by the source): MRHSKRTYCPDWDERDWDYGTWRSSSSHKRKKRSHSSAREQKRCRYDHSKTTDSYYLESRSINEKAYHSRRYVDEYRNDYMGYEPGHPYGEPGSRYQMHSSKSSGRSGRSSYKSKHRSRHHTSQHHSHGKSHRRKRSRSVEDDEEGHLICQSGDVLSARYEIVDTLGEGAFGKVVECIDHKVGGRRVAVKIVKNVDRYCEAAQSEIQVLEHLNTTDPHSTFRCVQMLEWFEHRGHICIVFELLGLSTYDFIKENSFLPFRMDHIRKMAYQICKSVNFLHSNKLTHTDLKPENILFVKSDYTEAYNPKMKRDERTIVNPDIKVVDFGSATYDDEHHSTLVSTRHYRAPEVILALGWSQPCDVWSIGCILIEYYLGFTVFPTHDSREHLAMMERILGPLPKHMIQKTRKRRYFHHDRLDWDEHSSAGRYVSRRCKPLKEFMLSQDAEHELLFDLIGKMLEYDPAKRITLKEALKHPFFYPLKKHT

Substance: Glutathione S-transferase-tagged mClk1/Sty (recombinant Clk1/Sty)
- electrophoretic mobility of rSF2/ASF on SDS-PAGE / Western blot with AK103 (phosphorylation state): rSF2/ASF exhibited reduced electrophoretic mobility in the presence of Clk 1/Sty (FIG. 2A, lane 2) compared with the rSF2/ASF alone
